# Laboratory results as given in patent publication US20250250357A1 (NANJING ZAIMING PHARMACEUTICAL, published 2025).
# What was measured:
# [1] = target: T1, human MSLN-FL-his protein (human, UniProt Q13421 296-580); experiment: competitive ELISA; row Tab106
# T1 construct: made in HEK293E cells, purified on nickel column; also called hMSLN-FL-his; human MSLN full-length protein; not shown: His tag
# [2] = target: T1, human MSLN-FL-his protein; experiment: competitive ELISA; row Tab142
# [3] = target: T1, human MSLN-FL-his protein; experiment: competitive ELISA; row F3-63.5
# [4] = target: T1, human MSLN-FL-his protein; experiment: competitive ELISA; row F6-62.5
# [5] = target: T1, human MSLN-FL-his protein; experiment: competitive ELISA; row F6-76.1
# [6] = target: T1, human MSLN-FL-his protein; experiment: competitive ELISA; row F2-56.12
# [7] = target: T1, human MSLN-FL-his protein; experiment: competitive ELISA; row F4-94.15
# [8] = target: T1, human MSLN-FL-his protein; experiment: SPR (Biacore), antibody captured on Protein A chip;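 note: measured at 25 °C, analyte injected 240 s in five twofold dilutions from 200 nM, dissociation up to 600 s, double-referenced, fitted with Langmuir 1:1 model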
# [9] = target: T2, human MSLN-hFc protein (Acro, Cat. No. MSN-H5253) (human, UniProt Q13421 296-580); experiment: ELISA, coated human MSLN-hFc, antibody 1 nM
# T2 construct: bought protein; also called human MSLN full-length protein; not shown: human Fc (hFc) of the bought protein
# T2 sequence (Q13421 other isoform, or with tags, fused parts or gaps limits assumed): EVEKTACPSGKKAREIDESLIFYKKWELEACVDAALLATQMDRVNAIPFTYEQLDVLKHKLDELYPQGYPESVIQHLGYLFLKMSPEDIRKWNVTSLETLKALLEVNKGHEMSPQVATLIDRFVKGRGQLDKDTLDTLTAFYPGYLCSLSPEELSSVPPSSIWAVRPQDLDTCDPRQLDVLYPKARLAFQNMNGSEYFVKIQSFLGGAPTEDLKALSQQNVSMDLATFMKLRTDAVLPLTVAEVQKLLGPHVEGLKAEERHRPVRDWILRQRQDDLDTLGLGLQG
# [10] = target: T2, human MSLN-hFc protein (Acro, Cat. No. …); experiment: ELISA, coated human MSLN-hFc, antibody 10 nM
# [11] = target: T2, human MSLN-hFc protein (Acro, Cat. No. …); experiment: ELISA, coated human MSLN-hFc, antibody 0.1 nM
# [12] = target: T2, human MSLN-hFc protein (Acro, Cat. No. …); experiment: ELISA, coated human MSLN-hFc, antibody 100 nM
# [13] = target: T2, human MSLN-hFc protein (Acro, Cat. No. …); experiment: ELISA, coated human MSLN-hFc, antibody 0.01 nM
# [14] = target: T2, human MSLN-hFc protein (Acro, Cat. No. …); experiment: ELISA, coated human MSLN-hFc, antibody 0.001 nM
# [15] = target: T2, human MSLN-hFc protein (Acro, Cat. No. …); experiment: ELISA, coated human MSLN-hFc, antibody 0.0001 nM
# [16] = target: T2, human MSLN-hFc protein (Acro, Cat. No. …); experiment: ELISA, coated human MSLN-hFc, antibody 1 nM; remark: listed apart in the source
# [17] = target: T2, human MSLN-hFc protein (Acro, Cat. No. …); experiment: ELISA, coated human MSLN-hFc, antibody 10 nM; remark: listed apart in the source
# [18] = target: T2, human MSLN-hFc protein (Acro, Cat. No. …); experiment: ELISA, coated human MSLN-hFc, antibody 0.1 nM; remark: listed apart in the source
# [19] = target: T2, human MSLN-hFc protein (Acro, Cat. No. …); experiment: ELISA, coated human MSLN-hFc, antibody 100 nM; remark: listed apart in the source
# [20] = target: T2, human MSLN-hFc protein (Acro, Cat. No. …); experiment: ELISA, coated human MSLN-hFc, antibody 0.01 nM; remark: listed apart in the source
# [21] = target: T2, human MSLN-hFc protein (Acro, Cat. No. …); experiment: ELISA, coated human MSLN-hFc, antibody 0.001 nM; remark: listed apart in the source
# [22] = target: T2, human MSLN-hFc protein (Acro, Cat. No. …); experiment: ELISA, coated human MSLN-hFc, antibody 0.0001 nM; remark: listed apart in the source
# T1 sequence (Q13421 other isoform, or with tags, fused parts or gaps): as the sequence (Q13421 other isoform, or with tags, fused parts or gaps limits assumed) above, with R14P counted along it
Binder,OD450 nm [9],OD450 nm [10],OD450 nm [11],OD450 nm [12],OD450 nm [13],OD450 nm [14],OD450 nm [15],OD450 nm [16],OD450 nm [17],OD450 nm [18],OD450 nm [19],OD450 nm [20],OD450 nm [21],OD450 nm [22],other results
"S009-F6-62.5 (antibody, human IgG1, kappa, V domains shown, human-murine chimeric antibody, human IgG1/kappa constant regions) VH: QVQLQQPGTELVKPGASVKLSCRASGYTFTAYWMHWVKQRPGQGLEWIGNINPSNGGTDFNEKFKSKATLTVDKSSSTAYMQLSSLTSEDSAVYYCARGRGYFDVWGTGTTVTVSS VL: DILLTQSPAILSVSPGERVSFSCRASKNIGTSIHWYQQRTNGSPRLLIKYASESISGIPSRFSGSGSGTDFTLNINSVESEDIADYYCQQSNSWPTLTFGAGTKLELKR",,,,,,,,,,,,,,,competition rate [1]: 30%; competition rate [2]: 28%; competition rate [3]: -17%; competition rate [4]: -76%; competition rate [5]: 57%; competition rate [6]: -143%; competition rate [7]: 25%; Kd [8]: 120 nM; koff [8]: 0.0173 s⁻¹; kon [8]: 144000 M⁻¹ s⁻¹
"F2.39.3-H8 (scFv, not shown: small tags and cut ends, also called S009-F2.39.3 humanized VH2 + VL4) scFv: EVQLVQSGAEVKKPGASVKVSCKASGYTFTNYWMHWVRQAPGQGLEWMGNINPSSGDSYYNERFMSRVTMTVDKSTSTAYMELSSLRSEDTAVYYCARSGGLWLAFWGQGTLVTVSSGGGGSGGGGSGGGGSDIVMTQTPLSLSVTPGQPASISCKSSQTLLNSVSQNNYLAWYQQKPGQSPTLLVYFASTRESGVPDRFSGSGSGTDFTLKISRVEAEDVGVYYCQQHYRTPYTFGGGTKVEIK",0.31,1.17,0.1,1.95,0.06,0.06,0.05,,,,,,,,
"F2.39.3-H6 (scFv, not shown: small tags and cut ends, also called S009-F2.39.3 humanized VH2 + VL2) scFv: EVQLVQSGAEVKKPGASVKVSCKASGYTFTNYWMHWVRQAPGQGLEWMGNINPSSGDSYYNERFMSRVTMTVDKSTSTAYMELSSLRSEDTAVYYCARSGGLWLAFWGQGTLVTVSSGGGGSGGGGSGGGGSDIVMTQSPDSLAVSLGERATINCKSSQTLLNSVSQNNYLAWYQQKPGQSPTLLIYFASTRESGVPDRFSGSGSGTDFTLTISSLQAEDVAVYYCQQHYRTPYTFGGGTKVEIK",0.31,1.18,0.1,1.69,0.07,0.06,0.06,,,,,,,,
"F2.39.3-H9 (scFv, not shown: small tags and cut ends, also called S009-F2.39.3 humanized VH3 + VL1) scFv: EVQLVQSGAEVKKPGASVKVSCKASGYTFTNYWMHWVRQAPGQGLEWMGNINPSSGDSYYNERFMSRVTMTVDKSTSTAYMELSSLRSEDTAVYYCARSGGLWLAFWGPGTLVTVSSGGGGSGGGGSGGGGSDIVMTQSPDSLAVSLGERATINCKSSQTLLNSVSQNNYLAWYQQKPGQSPKLLIYFASTRESGVPDRFSGSGSGTDFTLTISSLQAEDVAVYYCQQHYRTPYTFGGGTKVEIK",0.39,1.22,0.11,1.81,0.06,0.06,0.05,,,,,,,,
"F2.23.12-H5 (scFv, not shown: small tags and cut ends, also called S009-F2.23.12 humanized VH2 + VL1) scFv: EVQLVQSGAEVKKPGASVKVSCKASGYTFTNYWMHWVRQAPGQGLEWMGNINPSNGGPYYNERFRSRVTMTVDKSTSTAYMELSSLRSEDTAVYYCARPYYGSSYGYFDYWGQGTTVTVSSGGGGSGGGGSGGGGSDIQMTQSPSSLSASVGDRVTITCKASQDINKYIAWYQQKPGKAPKLLIHYTSELQPGVPSRFSGSGSGTDFTFTISSLQPEDIATYYCLQYANPLRTFGGGTKVEIK",,,,,,,,0.22,0.83,0.09,1.37,0.07,0.06,0.06,
"F2.23.12-H4 (scFv, not shown: small tags and cut ends, also called S009-F2.23.12 humanized VH1 + VL4) scFv: EVQLVQSGAEVKKPGASVKVSCKASGYTFTNYWMHWVRQAPGQGLEWMGNINPSNGGPYYNERFRSRVTMTVDKSTSTVYMELSSLRSEDTAVYYCARPYYGSSYGYFDYWGQGTTVTVSSGGGGSGGGGSGGGGSDIQMTQSPSSLSASVGDRVTITCKASQDINKYIAWYQHKPGKAPKLLIHYTSELQPGVPSRFSGSGSGRDYTFTISSLQPEDIATYYCLQYANPLRTFGGGTKVEIK",,,,,,,,0.57,0.92,0.18,1.22,0.09,0.08,0.07,
"F2.23.12-H16 (scFv, not shown: small tags and cut ends, also called S009-F2.23.12 humanized VH4 + VL4) scFv: EVQLVQSGAEVKKPGASVKVSCKASGYTFTNYWMHWVRQAPGQGLEWMGNINPSQGGPYYNERFRSRVTMTVDKSTSTAYMELSSLRSEDTAVYYCARPYYGSSYGYFDYWGQGTTVTVSSGGGGSGGGGSGGGGSDIQMTQSPSSLSASVGDRVTITCKASQDINKYIAWYQHKPGKAPKLLIHYTSELQPGVPSRFSGSGSGRDYTFTISSLQPEDIATYYCLQYANPLRTFGGGTKVEIK",,,,,,,,0.13,0.64,0.07,1.2,0.06,0.07,0.05,
"F2.23.12-H8 (scFv, not shown: small tags and cut ends, also called S009-F2.23.12 humanized VH2 + VL4) scFv: EVQLVQSGAEVKKPGASVKVSCKASGYTFTNYWMHWVRQAPGQGLEWMGNINPSNGGPYYNERFRSRVTMTVDKSTSTAYMELSSLRSEDTAVYYCARPYYGSSYGYFDYWGQGTTVTVSSGGGGSGGGGSGGGGSDIQMTQSPSSLSASVGDRVTITCKASQDINKYIAWYQHKPGKAPKLLIHYTSELQPGVPSRFSGSGSGRDYTFTISSLQPEDIATYYCLQYANPLRTFGGGTKVEIK",,,,,,,,0.17,0.62,0.09,1.22,0.07,0.07,0.05,
"F2.23.12-H1 (scFv, not shown: small tags and cut ends, also called S009-F2.23.12 humanized VH1 + VL1) scFv: EVQLVQSGAEVKKPGASVKVSCKASGYTFTNYWMHWVRQAPGQGLEWMGNINPSNGGPYYNERFRSRVTMTVDKSTSTVYMELSSLRSEDTAVYYCARPYYGSSYGYFDYWGQGTTVTVSSGGGGSGGGGSGGGGSDIQMTQSPSSLSASVGDRVTITCKASQDINKYIAWYQQKPGKAPKLLIHYTSELQPGVPSRFSGSGSGTDFTFTISSLQPEDIATYYCLQYANPLRTFGGGTKVEIK",,,,,,,,0.26,0.82,0.09,1.22,0.07,0.06,0.07,
"F2.23.12-H13 (scFv, not shown: small tags and cut ends, also called S009-F2.23.12 humanized VH4 + VL1) scFv: EVQLVQSGAEVKKPGASVKVSCKASGYTFTNYWMHWVRQAPGQGLEWMGNINPSQGGPYYNERFRSRVTMTVDKSTSTAYMELSSLRSEDTAVYYCARPYYGSSYGYFDYWGQGTTVTVSSGGGGSGGGGSGGGGSDIQMTQSPSSLSASVGDRVTITCKASQDINKYIAWYQQKPGKAPKLLIHYTSELQPGVPSRFSGSGSGTDFTFTISSLQPEDIATYYCLQYANPLRTFGGGTKVEIK",,,,,,,,0.16,0.73,0.08,1.38,0.07,0.07,0.05,
